Results as given in the supplement of paper PMC10065799, “High-throughput profiling of sequence recognition by tyrosine kinases and SH2 domains using bacterial peptide display” (eLife, 2023).

target: FGFR3 (UniProt P22607); experiment: phosphorylation enrichment, bacterial display (enrichment ratio); higher = better substrate or ligand; peptides without Tyr show the background
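Note: 11-residue human phosphosite peptides and single-mutation variants displayed on the E. coli surface, counted by deep sequencing, each peptide's frequency after selection divided by its frequency in the unselected input library; frequency after pTyr selection over input frequency; kinase dosed for 20-30% of maximal phosphorylation in three min.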

FGFR3, sequence (P22607 whole entry, looked up): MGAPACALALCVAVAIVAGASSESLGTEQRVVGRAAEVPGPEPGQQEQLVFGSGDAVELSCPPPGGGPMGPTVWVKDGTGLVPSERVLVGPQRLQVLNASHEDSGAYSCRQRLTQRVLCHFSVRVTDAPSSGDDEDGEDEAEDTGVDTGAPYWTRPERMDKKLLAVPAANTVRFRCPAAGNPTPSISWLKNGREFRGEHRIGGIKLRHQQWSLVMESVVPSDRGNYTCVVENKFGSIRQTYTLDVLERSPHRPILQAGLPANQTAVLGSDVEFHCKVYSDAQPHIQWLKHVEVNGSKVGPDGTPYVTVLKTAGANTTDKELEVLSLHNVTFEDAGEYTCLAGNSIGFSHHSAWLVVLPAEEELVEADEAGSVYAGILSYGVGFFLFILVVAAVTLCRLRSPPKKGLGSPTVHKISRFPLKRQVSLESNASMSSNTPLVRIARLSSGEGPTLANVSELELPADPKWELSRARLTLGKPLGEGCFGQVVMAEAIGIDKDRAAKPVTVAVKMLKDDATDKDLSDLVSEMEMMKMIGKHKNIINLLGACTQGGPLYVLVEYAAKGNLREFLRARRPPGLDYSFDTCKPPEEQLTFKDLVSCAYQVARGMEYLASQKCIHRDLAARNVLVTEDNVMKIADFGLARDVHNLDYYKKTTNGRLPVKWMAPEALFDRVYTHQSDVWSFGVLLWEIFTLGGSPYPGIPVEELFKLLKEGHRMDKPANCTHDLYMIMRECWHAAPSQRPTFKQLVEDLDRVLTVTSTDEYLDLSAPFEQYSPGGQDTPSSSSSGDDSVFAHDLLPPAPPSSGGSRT

Sequence	phosphorylation enrichment
SFGMVYEGNAR [INSR_Y1038]	0.474
NKPTVYGVSPN [ABL1_Y226]	0.446
GQAPGYSYTAA [CYCS_Y47]	0.481
LERFIYNPEEF [HLA-DPB1_Y59_R61P_YF]	1.71
LSTPEYGPKLK [TBC1D14_Y46_A43T]	0.506
SCRENYSDSEE [LEMD3_Y258]	0.694
HRGFLYLAIEY [TEK_Y899_Y897F]	0.891
ERIELYELDKK [PMM2_Y145_F144L]	0.673
FPKVRYHWLVL [APTX_Y214_A212V_YF]	0.631
CTTIQYNYMCN [TP53_Y234_H233Q]	0.692
YETDYYRKGGK [INSR_Y1190]	0.492
AHLLQYNHQVK [LGALS3_Y221_R224Q]	0.545
VGNAAYQAGSL [STK36_Y1181_P1185S]	0.446
PSPMPYASCQM [FOXL2_Y215]	0.625
GLDGRYLLRDS [SH2D1A_Y29_S28R]	0.488
RHAASYSSDSE [REPS1_Y116]	0.611
GMTLSYLFWEP [NDUFS8_Y74_R77W]	3.63
HRGSLYLAIEY [TEK_Y899_Y897S]	1.3
SGFESYGSSSF [RPA2_Y9_YF]	0.539
RVDRDYVLKST [HTATIP2_Y111_A116T]	0.529
IKNSGYISRYL [EIF2AK3_Y585]	0.531
TDISLYPSGGT [TENM4_Y399_V396I]	0.536
QNWELYSEGLG [CNKSR1_Y665_R662W]	0.746
AIYWRYSKFFD [SH3PXD2B_Y45_R43W]	0.804
PSRKDYETFQS [CTNND2_Y1154_P1159S_YF]	0.751
MENFIYESMQF [CYP19A1_Y361_R365Q_YF]	0.759
VLAHKYHGGGG [HBB_Y146_A141V]	0.352
YFWDGYMPRQY [GSS_Y270_R267W]	9.39
IDPFIYTPFGS [CYP3A4_Y432_YF]	0.779

system: Fer (mouse); experiment: as above

Sequence	phosphorylation enrichment
SFGMVYEGNAR [INSR_Y1038]	0.377
NKPTVYGVSPN [ABL1_Y226]	0.443
GQAPGYSYTAA [CYCS_Y47]	0.433
LERFIYNPEEF [HLA-DPB1_Y59_R61P_YF]	0.927
LSTPEYGPKLK [TBC1D14_Y46_A43T]	0.461
SCRENYSDSEE [LEMD3_Y258]	0.434
HRGFLYLAIEY [TEK_Y899_Y897F]	0.791
ERIELYELDKK [PMM2_Y145_F144L]	0.506
FPKVRYHWLVL [APTX_Y214_A212V_YF]	0.529
CTTIQYNYMCN [TP53_Y234_H233Q]	0.445
YETDYYRKGGK [INSR_Y1190]	0.392
AHLLQYNHQVK [LGALS3_Y221_R224Q]	0.583
VGNAAYQAGSL [STK36_Y1181_P1185S]	0.436
PSPMPYASCQM [FOXL2_Y215]	1
GLDGRYLLRDS [SH2D1A_Y29_S28R]	0.637
RHAASYSSDSE [REPS1_Y116]	0.578
GMTLSYLFWEP [NDUFS8_Y74_R77W]	3.7
HRGSLYLAIEY [TEK_Y899_Y897S]	0.853
SGFESYGSSSF [RPA2_Y9_YF]	0.389
RVDRDYVLKST [HTATIP2_Y111_A116T]	0.511
IKNSGYISRYL [EIF2AK3_Y585]	0.376
TDISLYPSGGT [TENM4_Y399_V396I]	0.39
QNWELYSEGLG [CNKSR1_Y665_R662W]	0.869
AIYWRYSKFFD [SH3PXD2B_Y45_R43W]	0.526
PSRKDYETFQS [CTNND2_Y1154_P1159S_YF]	0.518
MENFIYESMQF [CYP19A1_Y361_R365Q_YF]	16.1
VLAHKYHGGGG [HBB_Y146_A141V]	0.366
YFWDGYMPRQY [GSS_Y270_R267W]	0.576
IDPFIYTPFGS [CYP3A4_Y432_YF]	1.67

target: Fes (UniProt P07332); experiment: as above
Sequence (P07332 whole entry, looked up): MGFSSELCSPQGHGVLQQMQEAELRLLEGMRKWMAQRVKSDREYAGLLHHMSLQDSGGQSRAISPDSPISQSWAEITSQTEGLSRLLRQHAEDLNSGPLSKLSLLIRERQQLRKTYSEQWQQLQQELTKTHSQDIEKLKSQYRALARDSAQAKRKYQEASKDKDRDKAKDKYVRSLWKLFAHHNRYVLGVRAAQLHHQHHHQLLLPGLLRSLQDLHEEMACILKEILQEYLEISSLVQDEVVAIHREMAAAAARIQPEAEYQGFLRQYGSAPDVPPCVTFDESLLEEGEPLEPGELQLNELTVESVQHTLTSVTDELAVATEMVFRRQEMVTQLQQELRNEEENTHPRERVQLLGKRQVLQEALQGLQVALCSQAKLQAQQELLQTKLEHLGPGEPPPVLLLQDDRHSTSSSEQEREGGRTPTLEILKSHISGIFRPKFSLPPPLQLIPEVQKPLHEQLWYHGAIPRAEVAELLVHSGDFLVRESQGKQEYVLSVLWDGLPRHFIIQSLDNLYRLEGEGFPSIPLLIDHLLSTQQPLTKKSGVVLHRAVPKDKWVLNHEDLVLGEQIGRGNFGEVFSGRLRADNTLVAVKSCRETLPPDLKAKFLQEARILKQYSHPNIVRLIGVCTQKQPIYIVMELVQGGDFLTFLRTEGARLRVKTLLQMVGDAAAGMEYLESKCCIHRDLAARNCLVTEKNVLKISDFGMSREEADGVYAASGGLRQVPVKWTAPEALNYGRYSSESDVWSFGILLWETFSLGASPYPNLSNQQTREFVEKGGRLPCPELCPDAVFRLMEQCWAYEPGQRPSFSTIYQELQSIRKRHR

Sequence	phosphorylation enrichment
SFGMVYEGNAR [INSR_Y1038]	0.775
NKPTVYGVSPN [ABL1_Y226]	0.623
GQAPGYSYTAA [CYCS_Y47]	0.665
LERFIYNPEEF [HLA-DPB1_Y59_R61P_YF]	1.75
LSTPEYGPKLK [TBC1D14_Y46_A43T]	0.574
SCRENYSDSEE [LEMD3_Y258]	1.14
HRGFLYLAIEY [TEK_Y899_Y897F]	1.76
ERIELYELDKK [PMM2_Y145_F144L]	1.1
FPKVRYHWLVL [APTX_Y214_A212V_YF]	1.21
CTTIQYNYMCN [TP53_Y234_H233Q]	0.955
YETDYYRKGGK [INSR_Y1190]	0.864
AHLLQYNHQVK [LGALS3_Y221_R224Q]	0.9
VGNAAYQAGSL [STK36_Y1181_P1185S]	0.598
PSPMPYASCQM [FOXL2_Y215]	1.07
GLDGRYLLRDS [SH2D1A_Y29_S28R]	0.734
RHAASYSSDSE [REPS1_Y116]	0.806
GMTLSYLFWEP [NDUFS8_Y74_R77W]	1.59
HRGSLYLAIEY [TEK_Y899_Y897S]	2.15
SGFESYGSSSF [RPA2_Y9_YF]	0.601
RVDRDYVLKST [HTATIP2_Y111_A116T]	0.823
IKNSGYISRYL [EIF2AK3_Y585]	0.711
TDISLYPSGGT [TENM4_Y399_V396I]	0.84
QNWELYSEGLG [CNKSR1_Y665_R662W]	1.07
AIYWRYSKFFD [SH3PXD2B_Y45_R43W]	1.05
PSRKDYETFQS [CTNND2_Y1154_P1159S_YF]	0.977
MENFIYESMQF [CYP19A1_Y361_R365Q_YF]	6.34
VLAHKYHGGGG [HBB_Y146_A141V]	0.498
YFWDGYMPRQY [GSS_Y270_R267W]	1.18
IDPFIYTPFGS [CYP3A4_Y432_YF]	1.12

target: Fyn (UniProt P06241); experiment: as above
Sequence (P06241 whole entry, looked up): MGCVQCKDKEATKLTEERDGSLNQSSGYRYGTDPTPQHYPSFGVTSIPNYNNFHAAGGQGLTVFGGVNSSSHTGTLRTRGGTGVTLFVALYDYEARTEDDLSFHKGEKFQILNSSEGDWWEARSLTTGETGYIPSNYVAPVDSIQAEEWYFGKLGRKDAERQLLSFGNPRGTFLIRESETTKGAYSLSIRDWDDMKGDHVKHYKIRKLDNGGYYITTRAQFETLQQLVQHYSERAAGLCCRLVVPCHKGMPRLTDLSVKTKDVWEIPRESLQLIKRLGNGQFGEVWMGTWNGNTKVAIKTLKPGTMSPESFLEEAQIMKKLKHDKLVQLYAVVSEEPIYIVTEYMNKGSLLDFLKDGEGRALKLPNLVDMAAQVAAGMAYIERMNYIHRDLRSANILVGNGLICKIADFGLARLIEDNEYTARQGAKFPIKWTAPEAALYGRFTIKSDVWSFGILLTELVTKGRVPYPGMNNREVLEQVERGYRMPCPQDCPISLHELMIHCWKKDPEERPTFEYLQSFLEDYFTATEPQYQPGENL

Sequence	phosphorylation enrichment
SFGMVYEGNAR [INSR_Y1038]	0.526
NKPTVYGVSPN [ABL1_Y226]	0.55
GQAPGYSYTAA [CYCS_Y47]	0.471
LERFIYNPEEF [HLA-DPB1_Y59_R61P_YF]	1.75
LSTPEYGPKLK [TBC1D14_Y46_A43T]	0.527
SCRENYSDSEE [LEMD3_Y258]	0.52
HRGFLYLAIEY [TEK_Y899_Y897F]	0.54
ERIELYELDKK [PMM2_Y145_F144L]	0.586
FPKVRYHWLVL [APTX_Y214_A212V_YF]	0.42
CTTIQYNYMCN [TP53_Y234_H233Q]	0.555
YETDYYRKGGK [INSR_Y1190]	0.398
AHLLQYNHQVK [LGALS3_Y221_R224Q]	0.706
VGNAAYQAGSL [STK36_Y1181_P1185S]	0.401
PSPMPYASCQM [FOXL2_Y215]	0.519
GLDGRYLLRDS [SH2D1A_Y29_S28R]	0.372
RHAASYSSDSE [REPS1_Y116]	0.737
GMTLSYLFWEP [NDUFS8_Y74_R77W]	0.501
HRGSLYLAIEY [TEK_Y899_Y897S]	0.58
SGFESYGSSSF [RPA2_Y9_YF]	0.448
RVDRDYVLKST [HTATIP2_Y111_A116T]	0.65
IKNSGYISRYL [EIF2AK3_Y585]	0.4
TDISLYPSGGT [TENM4_Y399_V396I]	0.414
QNWELYSEGLG [CNKSR1_Y665_R662W]	3.04
AIYWRYSKFFD [SH3PXD2B_Y45_R43W]	1.49
PSRKDYETFQS [CTNND2_Y1154_P1159S_YF]	0.845
MENFIYESMQF [CYP19A1_Y361_R365Q_YF]	9.33
VLAHKYHGGGG [HBB_Y146_A141V]	0.366
YFWDGYMPRQY [GSS_Y270_R267W]	0.547
IDPFIYTPFGS [CYP3A4_Y432_YF]	6.96
